Results reported in the DeepSol protein solubility set.

Experiment: soluble on expression in E. coli; label from the status in PepcDB or PDB records

Sequence	soluble on expression in E. coli
AIAVLLRHPVLGTEQLPDSWPSHWNTAIVGIPGYSRQRSDLSVVKDVSSPCLPLVAMPSCDDGLASLWNDVSRAV	soluble
DIECPTCGRPMGIRTASTGVFLGCSGYALPPKERCKTTINLGDEEGIINVLEEDVETAALRAKKRCPICETAMDAYLIDDKRKMHVCGNNPNCEGYVVEYGEFKVKGYDGPVVECDKCGSDMVLKNGRFGKYMDCTSETCKNTRKILK	not soluble
MSSYANHQALAGLTLGKSTDYRDTYDASLLQGVPRSLNRDPLGLKADNLPFHGTDIWTLYELSWLNAKGLPQVAVGHVELDYTSVNLIESKSFKLYLNSFNQTRFNNWDEVRQTLERDLSTCAQGKISVALYRLDELEGQPIGHFNGTCIDDQDITIDNYEFTTDYLENATCGEKVVEETLVSHLLKSNCLITHQPDWGSLQIQYRGRQIDREKLLRYLVSFRHHNEFHEQCVERIFNDLLRFCQPEKLSVYARYTRRGGLDINPWRSNSDFVPSTTRLVRQ	soluble
MSLIILTRDDEPRIFTPDSDAASPALHSTSPLPDPASASPLHREEKILPKVCNIVSCLSFSLPASPTDSGLASPTIITREGQQFWAKCLIWKYQLYLHGLHKKSDGRRDKQISASPST	soluble
MGSDKIHHHHHHMFVGFDYGSANCAVGIMQGDEVSLLPLSTDSAYLPSTLYAMDRELIAEAVYRALPAELKADYAKKRAAQLSRARMVRHELDLDAESPAVFVGEQAVAAYLEMPEEGFYVRSPKSFLGATGLRPEQVALFEDIVTLMMQHIKVRAEAVLVQKGMASKDEARITHAVIGRPVNFQGIGGEESNRQAEAILTLAAKRAGFVDVAFLFEPLAAGMDYEAGLKADQTVLVVDVGGGTTDCSVVKMGPSHKASFDRSRDCLGHSGQRIGGNDLDIALAMNAFMPHFGLGSLMSNGKPMPSNPFWNAVAVNDISAQREFATLSTRKLIDELIKEAEQPNLLKRLLKVQQQQLSYQIVRLAERAKIALSDAHTTESSLEFIEAMLSAEVNRDCFENAIEPSLGKIEALMHQALTQAAKSLTGNGLAPEELSVEAGTAECQPDVIYVTGGTARSPAIYAKITSLYPDTPVVVGDHFGSVTAGLTRWAQKHFAQ	not soluble
MGSDKIHHHHHHMNKYIYLLAVVFGLSSCNDFLELSPTNKVIETDYYKTQEDLTEALVAAYDPLKWNAYNAYSSYELVSNIMSDDAETGGSTVSDQPQLQRVNDFTNWVTPTNLPEGLWGRSYEGVNRANIVIEKCPLLPEGTMSAELRDRYVAEAHFLRVFYYFQLWRFFGYIPYYETNLGLDDITTVPQLQPDEVYAKLIEDLDNNVIGKLPKVVPANEKGRATNGAAIAMKARIVLYQNDDTKMKEIASQLKELITDPAYQYDLIPDYKVLFDDEYEWCKESVFEVNYTEIGNSNDWAGKANQGNSDIIMLGARGLKDPNNVYVEGWGFAPVTKALNDAFLPDDPRKWTTIIDHEEFRAEGGTISSDVNQYTGYSVRKYHPRAGYSSTVGTEALNYKNNYRVIRFSDILLMASEALLRSGGSVGEAQDYYARVVKRAMGDDYKVPTVSLDNIYKERRYEFAMEGIRYWDLVRTNQAKDFIKGWDDTKKYLPIPQSEIDKSDGHLVQNPHF	not soluble
REEVRVVVGAERTELLLPLLRDKRVALVANATSVVGTEREHLLDNLLRQGVNVVKILGPEHGFRGDADAGATVKDERDVRTGIPIVSLYGKNKKPTPRMLADVDVLLFDMQDVGTRFFTYISTLHYVMEACAEEQKKLIVTDRPNPNDYVDGPILQDDCRSFVGVDPLPILHGLTIGELANMINGEGWLGKKEMKCDLTVVPMSGWKHGQEYALPVKPSPNLPTANAIAWYPSLCLFEATIMSVGRGTDFPFEVLGYPKKVFGSFVFVPRPIRGMDSNPLYKGRHCYGVDLRGEKAPRGLSLQLLIRYYQTARREGIKFVNRKQMFNLLAGTKELAQQIEKGRTEEQIRASWQSDLDKYHKLRKKYLLY	not soluble
MGSDKIHHHHHHMYREYQPCGLLAPYVDKIWEFKGSPEYGMRINVLPDGCTDLIFALGGITQPVGSEGRIMPSCRSFFVGPMKRYSELVAYTETVHMVGIRFHPCGLFRFMDLPVQELGGQRISSADLGIKLFDDSFTERLYELPDLRSRIQCIETVLVRSMHKHDVVDKQIVFAVNHIHLYHGQREIRLLAEDTCLCQRHLERRFKLFTGFTPKEYSRIVKFRHAIDLLKNTTEANNLLSVAVNAGYYDVSHFLKEVKTLSGGTAESFLSPTLPQEGLLTYIEK	not soluble
MTYPDLSRGAGPVAAGPQPTGLADLLERVLDKGLVIAGDIRVNLLDIELLTIKLRLVIASMETAQQAGIDWWTRDPWLKASESELLEENRRLREQLAQADTNGRKRIEGKESHD	not soluble
MIKILDASAFIHGYNPSIEDGEHYTTNGIVSEVVSKEDIVKLAIEYGKLKILDPKPETIEKVVKTSIETGDTISNNDIEILALAIDLGGTLYTDDYGLQNVSKKLKINYENIVSAGSKDDFVWKKICKGCKKMYPINYLDEECEVCGSPLYRKMVKNRLKKGKKFYDKKKKPKKLFLEHHHHHH	soluble
MGSDKIHHHHHHMTEKATLAKQILHFNETLSSNSMDLPAGYRVINPYEGDQKELVRNITTRFYQKYYNDTKPRRIIFGSSPARRGSAVTGVPFEDAKHLQSETGIFIDTFYINQSSSDFLYDVMNEYGGCEQFYSDFYMNFVCPLGIVRINAKGNEVNCNYYENKQLREALMPFIIESIRSQIDFGMDTSVCYCIGSGENFKFLSRINEEHHFFETIIPLEHPRFIMQYNSKNKDTYMEKYLCALKI	not soluble
MRVVALGDLHANFPLLWRILRREGLADEGFRPTEALRSGRVRLVLLGDLVHPKTPRDYARLTGLEAYDPEDPFHLRLAAGAQIRELFRLKAFQEEAGDHVTILLGNHEAALLEGSPILGNRHLKHLEFHPEHGGKALPEALRSWMASFPKELVLKGVHFAHVGPVPWLQEYDGLFYAQSEAKTWWFLTPEYVERMGYRYGVYGHTPMPDGILLKDRFALIDALDLGEYLVLDPEADPPRPEVRRLHE	soluble
MSLAHKAKLKIIPLGGLNEIGKNMTVFEYGNDIIVVDCGLAFPDDEMLGIDLVIPDITYLLKNREKVKAIVLTHGHEDHIGALPYVLKQLNVPIYGTRLTIGLVEYKLKEHGLLRDSKLITVKPRETVEIGQFKVEFIRTSHSIADSAALAIHTPVGTVFHSGDFKIDFTPIDGEVPDLHRFAQLGEKGVLVMLCDSTNIERPGYTMSERTVGETFDNLFRKAEQRIIVATFASNIHRVQQIINSAQKYGRKVAISGRSMVNVVNVAMELGYLTVPEGLLIDLDEANKLPHNKVVIITTGSQGEPMSALTRMASSEHKKVEIVPGDTVIISASPIPGNERLISRVINQLFKKGANVIYEALADIHVSGHACQEEIKLLHTLIKPKFFIPVHGEYRHLVQHAKLAESLGMPPENIFVVDNGTVLEFTKEGHHHHHH	soluble
MGSDKIHHHHHHMPRQWNTDALSAGHLSCSSFFPFALTNKIIGRIKKKNNRMKGNNQLCTLLKLCLLSMLAFGTAKAQIQIVGAPSMKALDDSPNRLQVFMLHTLNPASVILRFAGAGTGKLYRYTTKAIEAEEVTTATYSDGMWTLTAPQLNCGYFVSGDGRLPQYYWISNYADYALFVSAVTGKPSETSPCISMDLAVDAAIRPIPYFQPNGIPRRLDRHVQISYPDMEWDAEARLFRPSTKEVEVEASDDERTLVVSASLADAVYTIHGDRFTKELSLPFTAVATDEILTPKVEVYAFVDKVDGGSAIGDNTPEEGDASLVSAPFTVMLAAYGNEPSAANFVWRIYRTEEGAENSVLVYNGTSTEFTFRQAGIYSILLQATNRTGTCTDEVLLENYFKVAESSLIVPNAFSPYGSPGVNDVFRVKHSSLVHFDGRIFDSWGKQIFRWTNPDEGWDGKYRGKMMPTGVYYYVIEAEGADGIKYKRKGDINILRPAYEIPLGGNLPR	not soluble
MGSDKIHHHHHHMADGAEFKVYTQRFIMEKIAYYLGQYHSLEENNAFWGEGFTEWHNVAKARPLFPSHRQPVLPGKLGFYDLRNNDTIEEQVALADSFGVTAFCHWHYWFGGKRVLYRPFDSMLKIQNSPVKVMLGWANESWTGIWHGLSDQVIFEQPYNKIELNEHAKLLADYFRHENYLKVNGKAAFLIYKPRKIPESKSYLQLLRQKVYENCGLDMYIIGTWGPGRLEVIHSADELGLDALVANNVGATFKSELSRKLYNGFWTAAKSLGLGPELRNYASTVKTLEYAHQNISGTVHSTIVTGWDNSPRSNRRALVLTNFNENSFKYAIDIAISNEKNNENKLLFIKSWNEWAEGNTLEPRFKEDWSLGKVLKKQIIKHDV	not soluble
KVTNRHFQDVPALEVVTTTHLDQPLPLVIFYHGWQSNKELVLTQARKLARKNLRVVLPDAMNHGERHQIVSQIPSFTFWNSIQGNLGEFELIVNYYRERKLILNEQIGVGGYSMGGMTTGALLTHHPEIKAATIIMGTPNLNAYAQLVRKHAQAHAYYIPSDLALLTSWLDHYDLNLQPETINHRPLLFWHGTEDERIPYSQSRNFFDRVHTAPYAEQVAFITGYQAKHLVKVPLMNKVANFFDYYLN	not soluble
MIFLSFKKSFKNITIEGKFTFEKGFNVILGPSGAGKSTVIKVMCGIEKPDEGFMKCCDEVFFDTKKGVFLPPQKRRLGVVFQSHNLFPHMTVRENIEFALKKAKEPQFTVEELLEKFNLKGHENKYPGELSGGQRQRVAVIRAIVFNPRAVLMDEPFSSLDFKTKLSIMEFIKSVHIEKPVIIVTHDLFEALYLGQKFFLMDNGKKVKEGGKEVLKEYVDLEKIKKFLS	soluble
MAHHHHHHMPSMTSLLHKSLVVCFTSRISIFTSRPARGTAASAQLSLSSVPTAEHLECWTRQGDCVVGREEVACASCLGGYLAAGTISGLVLLYFCGAAESLVKELVRFNVGYGVTGMQLLPNDTLLVVTSVGDVWRWPLCDLLRNADASGAEGEKDEATEAEPTAAAHQPPLPLAAPRVPAAPSPQDKTLHTEPRVPATPEEVSYTQEGDTEDRSFSAHDTSTLAHTPQREREATARVEEIVTAVRVGADVPLVGARSDAEEQGTPSVHLSTASASLRALSASSENDGDEDHPDERGNDNTDMDARRAEPATVSCLPPPPPLASPTVSDKFEEKRGVGGVTRCATEFQRRTLYDPEQSTEEPGVVDMGVPSSAAGNSADLSHDGLRIAVSPPSTADNTAHHDAVLEDSGADVPEVAARGSAAGAAAVAAKEGTISDKHIQPFQRNHGDLSDTADVAQGTAHSSPGITSRQGTGMKAAVDDLEHEFAHAMKRLLGPTVGVEGLRKDRRMNPRKVAGVLANLTNQQAAAAGAKGLSYEAPSQPRALEGPNSTKLLEEKRTTLEAAVFDFEAYRQAHRLEVDALQYHHPVPAPTYTLQDRVFDAVESAGRLCDKEAGRATGAAGNAAATLPAAPEDELRDVTYGKVKWTLDPQIAEERRRGGPEMAQHHCDHLIFSTPYPAKATVLFAEEAPLMPSTAWEEVLLLPLPLPPAPSVF	soluble
MFYYVEILGTLPEMGKAEVEALAELGVGNVEKVDYLLVSGSVKHIGVFERLGLAHEYGLLLYEGDDIKDILDFAKGLEWRNIINGTFAVRRERMRNCMHEVNDLDKKIGGIIHSQGLRVNLSRPDTVVRVYCGNKIWLGIRIREFKGKEFEDRKADRRPFSRPIALPPRIARAMVNLTKATREVLDPFMGTGGMLIEAGLIGLKVYGLDIREDMVEGAKINLEYYGIRDYVVKVGDATKIEEVFPGKTFEAVATDPPYGNSTTLPMDRNELYKRSLESIHSVLEGRLAIAFPADFDARDVAESIGFKVLGRFYQRVHSSLSRYFYVMEV	soluble
